According to US20140274782A1, “AFFINITY REAGENTS AND METHODS FOR DETECTION, PURIFICATION, AND PROTEOMIC ANALYSIS OF METHYLATED PROTEINS” (The Board of Trustees of the Leland Stanford Junior …, priority 2013, published 2014):

Experiments:
Assay in all cases: ProtoArray methylated with G9a SET domain
[1] = target: AP1S1, G9a-methylated (human) (UniProt P61966)
[2] = target: BHMT, G9a-methylated (human) (UniProt Q93088)
[3] = target: C12orf60, G9a-methylated (human) (UniProt Q5U649)
[4] = target: C12orf62, G9a-methylated (human) (UniProt Q96I36)
[5] = target: C2orf43, G9a-methylated (human) (UniProt Q9H6V9)
[6] = target: CCL24, G9a-methylated (human) (UniProt O00175)
[7] = target: CDC2, G9a-methylated (human) (UniProt P06493)
[8] = target: CDK5RAP3, G9a-methylated (human) (UniProt Q96JB5)
[9] = target: CDKL5, G9a-methylated (human) (UniProt O76039)
[10] = target: CRB3, G9a-methylated (human) (UniProt Q9BUF7)
[11] = target: CRYZL1, G9a-methylated (human) (UniProt O95825)
[12] = target: CSF3, G9a-methylated (human) (UniProt P09919)
[13] = target: CTSZ, G9a-methylated (human) (UniProt Q9UBR2)
[14] = target: DNTT, G9a-methylated (human) (UniProt P04053)
[15] = target: FKBP14, G9a-methylated (human) (UniProt Q9NWM8)
[16] = target: FTL, G9a-methylated (human) (UniProt P02792)
[17] = target: GAL, G9a-methylated (human) (UniProt P22466)
[18] = target: GNPTAB, G9a-methylated (human) (UniProt Q3T906)
[19] = target: GPR108, G9a-methylated (human) (UniProt Q9NPR9)
[20] = target: GPX1, G9a-methylated (human) (UniProt P07203)
[21] = target: GPX5, G9a-methylated (human) (UniProt O75715)
[22] = target: HIC2, G9a-methylated (human) (UniProt Q96JB3)
[23] = target: HPCAL4, G9a-methylated (human) (UniProt Q9UM19)
[24] = target: KCTD7, G9a-methylated (human) (UniProt Q96MP8)
[25] = target: KRR1, G9a-methylated (human) (UniProt Q13601)
[26] = target: LPAL2, G9a-methylated (human) (UniProt Q16609)
[27] = target: MAGEH1, G9a-methylated (human) (UniProt Q9H213)
[28] = target: Magmas, G9a-methylated (human) (UniProt Q9Y3D7)
[29] = target: NME1, G9a-methylated (human) (UniProt P15531)
[30] = target: NME7, G9a-methylated (human) (UniProt Q9Y5B8)
[31] = target: PPARG, G9a-methylated (human) (UniProt P37231)
[32] = target: PPIL5, G9a-methylated (human) (UniProt Q96L50)
[33] = target: RHBDD1, G9a-methylated (human) (UniProt Q8TEB9)
[34] = target: SAR1B, G9a-methylated (human) (UniProt Q9Y6B6)
[35] = target: SCGB2A2, G9a-methylated (human) (UniProt Q13296)
[36] = target: SEC22B, G9a-methylated (human) (UniProt O75396)
[37] = target: SERPINB2, G9a-methylated (human) (UniProt P05120)
[38] = target: SH3YL1 (hit 65), G9a-methylated (human) (UniProt Q96HL8)
[39] = target: STK17B, G9a-methylated (human) (UniProt O94768)
[40] = target: TMED5, G9a-methylated (human) (UniProt Q9Y3A6)
[41] = target: TMEM32, G9a-methylated (human) (UniProt Q8N4V1)
[42] = target: TMEM97, G9a-methylated (human) (UniProt Q5BJF2)
[43] = target: VPS29, G9a-methylated (human) (UniProt Q9UBQ0)
[44] = target: YPEL5, G9a-methylated (human) (UniProt P62699)
[45] = target: ZBP1, G9a-methylated (human) (UniProt Q9H171)
Chain of ZBP1, G9a-methylated (human) (Q9H171 whole entry): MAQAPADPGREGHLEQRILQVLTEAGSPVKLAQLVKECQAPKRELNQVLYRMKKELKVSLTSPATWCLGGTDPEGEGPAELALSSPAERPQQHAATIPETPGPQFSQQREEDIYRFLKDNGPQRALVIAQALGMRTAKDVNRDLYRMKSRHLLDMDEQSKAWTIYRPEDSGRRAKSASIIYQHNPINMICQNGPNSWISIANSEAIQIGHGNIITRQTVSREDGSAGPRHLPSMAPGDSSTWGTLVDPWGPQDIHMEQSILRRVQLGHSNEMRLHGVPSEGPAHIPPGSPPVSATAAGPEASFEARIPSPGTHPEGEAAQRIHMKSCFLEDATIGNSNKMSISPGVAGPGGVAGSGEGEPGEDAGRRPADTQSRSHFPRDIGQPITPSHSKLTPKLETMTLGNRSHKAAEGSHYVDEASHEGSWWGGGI

Chain of 3× Flag-3×MBT (designed binder) (Q9Y468 258-598): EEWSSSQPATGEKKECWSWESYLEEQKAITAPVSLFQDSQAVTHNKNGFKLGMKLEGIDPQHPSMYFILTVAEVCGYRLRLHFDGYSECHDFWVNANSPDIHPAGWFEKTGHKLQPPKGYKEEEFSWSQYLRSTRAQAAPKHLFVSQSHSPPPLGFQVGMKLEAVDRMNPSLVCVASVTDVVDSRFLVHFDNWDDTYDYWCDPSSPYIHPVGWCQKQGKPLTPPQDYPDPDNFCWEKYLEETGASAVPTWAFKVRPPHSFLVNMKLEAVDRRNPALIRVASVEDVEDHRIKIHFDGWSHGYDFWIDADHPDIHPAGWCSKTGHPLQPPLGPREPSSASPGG
Chain of GPX1, G9a-methylated (human) (P07203 whole entry): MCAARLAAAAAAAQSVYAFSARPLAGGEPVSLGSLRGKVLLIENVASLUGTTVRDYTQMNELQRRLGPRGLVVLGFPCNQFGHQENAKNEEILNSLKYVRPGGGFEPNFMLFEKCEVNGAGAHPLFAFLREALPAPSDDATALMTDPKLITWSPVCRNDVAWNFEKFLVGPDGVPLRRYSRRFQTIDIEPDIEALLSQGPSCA
Chain of CSF3, G9a-methylated (human) (P09919 31-207 limits assumed): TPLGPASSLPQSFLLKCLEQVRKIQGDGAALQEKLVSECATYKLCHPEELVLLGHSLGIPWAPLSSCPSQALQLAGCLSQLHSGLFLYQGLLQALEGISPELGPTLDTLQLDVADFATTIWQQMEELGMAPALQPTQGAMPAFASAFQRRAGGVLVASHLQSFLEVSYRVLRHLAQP
Chain of CDC2, G9a-methylated (human) (P06493 whole entry): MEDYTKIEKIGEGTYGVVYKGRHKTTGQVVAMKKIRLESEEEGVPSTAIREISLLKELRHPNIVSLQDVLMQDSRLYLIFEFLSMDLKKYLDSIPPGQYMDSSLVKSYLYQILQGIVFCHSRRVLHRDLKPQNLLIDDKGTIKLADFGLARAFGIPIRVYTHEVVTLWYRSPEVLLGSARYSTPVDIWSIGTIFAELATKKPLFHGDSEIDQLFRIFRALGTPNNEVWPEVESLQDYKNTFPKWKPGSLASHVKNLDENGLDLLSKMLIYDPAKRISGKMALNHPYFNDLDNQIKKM
Chain of GPX5, G9a-methylated (human) (O75715 other isoform, or with tags, fused parts or gaps limits assumed): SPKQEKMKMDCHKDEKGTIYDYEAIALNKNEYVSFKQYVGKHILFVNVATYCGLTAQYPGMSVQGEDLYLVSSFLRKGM
Chain of C12orf60, G9a-methylated (human) (Q5U649 whole entry): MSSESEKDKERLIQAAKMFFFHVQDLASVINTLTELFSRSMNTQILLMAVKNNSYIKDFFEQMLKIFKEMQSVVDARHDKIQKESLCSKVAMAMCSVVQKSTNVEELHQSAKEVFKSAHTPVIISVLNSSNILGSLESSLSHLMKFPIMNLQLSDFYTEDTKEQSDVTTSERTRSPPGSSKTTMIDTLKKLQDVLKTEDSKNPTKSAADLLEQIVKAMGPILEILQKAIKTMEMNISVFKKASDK
Chain of CDK5RAP3, G9a-methylated (human) (Q96JB5 whole entry): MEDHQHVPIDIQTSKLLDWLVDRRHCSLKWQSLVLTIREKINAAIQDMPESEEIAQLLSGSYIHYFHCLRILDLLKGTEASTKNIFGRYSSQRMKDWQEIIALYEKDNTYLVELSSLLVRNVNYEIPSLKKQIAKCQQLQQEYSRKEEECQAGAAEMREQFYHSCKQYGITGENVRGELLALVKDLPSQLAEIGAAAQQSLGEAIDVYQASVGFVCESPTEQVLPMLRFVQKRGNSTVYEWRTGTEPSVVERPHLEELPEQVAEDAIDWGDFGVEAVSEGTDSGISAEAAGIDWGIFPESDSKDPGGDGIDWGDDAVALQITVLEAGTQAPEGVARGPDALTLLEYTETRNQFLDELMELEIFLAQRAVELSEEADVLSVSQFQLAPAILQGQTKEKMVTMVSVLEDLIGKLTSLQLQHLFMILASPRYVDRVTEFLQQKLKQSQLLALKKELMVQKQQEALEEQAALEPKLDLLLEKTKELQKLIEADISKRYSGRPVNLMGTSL
Chain of PPARG, G9a-methylated (human) (P37231 29-505 limits assumed): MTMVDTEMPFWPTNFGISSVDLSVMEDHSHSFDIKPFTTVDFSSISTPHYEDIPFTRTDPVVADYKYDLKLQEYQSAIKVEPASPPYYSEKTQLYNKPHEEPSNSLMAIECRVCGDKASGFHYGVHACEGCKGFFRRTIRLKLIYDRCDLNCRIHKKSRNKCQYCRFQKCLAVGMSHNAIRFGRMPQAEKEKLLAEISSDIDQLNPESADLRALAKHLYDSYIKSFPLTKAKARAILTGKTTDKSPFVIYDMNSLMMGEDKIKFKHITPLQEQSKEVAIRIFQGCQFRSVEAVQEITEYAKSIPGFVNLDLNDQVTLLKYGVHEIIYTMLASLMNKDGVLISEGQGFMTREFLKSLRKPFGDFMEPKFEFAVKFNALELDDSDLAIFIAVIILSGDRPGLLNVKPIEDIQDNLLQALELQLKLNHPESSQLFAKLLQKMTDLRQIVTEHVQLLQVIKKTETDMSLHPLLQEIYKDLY
Chain of SAR1B, G9a-methylated (human) (Q9Y6B6 whole entry): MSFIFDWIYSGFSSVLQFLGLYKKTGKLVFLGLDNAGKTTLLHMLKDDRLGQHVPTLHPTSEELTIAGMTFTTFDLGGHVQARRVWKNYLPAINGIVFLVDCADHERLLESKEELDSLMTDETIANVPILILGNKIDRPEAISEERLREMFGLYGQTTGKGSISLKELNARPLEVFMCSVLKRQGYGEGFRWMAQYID
Chain of KCTD7, G9a-methylated (human) (Q96MP8 whole entry): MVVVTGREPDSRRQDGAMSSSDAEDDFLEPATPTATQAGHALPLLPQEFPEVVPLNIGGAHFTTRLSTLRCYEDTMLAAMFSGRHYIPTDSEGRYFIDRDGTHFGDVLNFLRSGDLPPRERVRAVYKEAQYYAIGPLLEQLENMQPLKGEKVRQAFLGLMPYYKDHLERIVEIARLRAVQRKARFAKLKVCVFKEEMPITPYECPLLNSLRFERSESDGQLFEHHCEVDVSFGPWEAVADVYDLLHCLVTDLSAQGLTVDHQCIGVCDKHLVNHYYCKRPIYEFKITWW
Chain of MAGEH1, G9a-methylated (human) (Q9H213 whole entry): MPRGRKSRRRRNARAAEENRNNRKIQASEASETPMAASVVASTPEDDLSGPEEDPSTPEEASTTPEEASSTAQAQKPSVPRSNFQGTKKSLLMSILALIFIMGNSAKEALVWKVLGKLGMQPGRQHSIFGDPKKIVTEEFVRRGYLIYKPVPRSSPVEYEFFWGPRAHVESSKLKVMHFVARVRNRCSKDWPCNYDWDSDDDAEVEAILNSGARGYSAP
Chain of GNPTAB, G9a-methylated (human) (Q3T906 whole entry): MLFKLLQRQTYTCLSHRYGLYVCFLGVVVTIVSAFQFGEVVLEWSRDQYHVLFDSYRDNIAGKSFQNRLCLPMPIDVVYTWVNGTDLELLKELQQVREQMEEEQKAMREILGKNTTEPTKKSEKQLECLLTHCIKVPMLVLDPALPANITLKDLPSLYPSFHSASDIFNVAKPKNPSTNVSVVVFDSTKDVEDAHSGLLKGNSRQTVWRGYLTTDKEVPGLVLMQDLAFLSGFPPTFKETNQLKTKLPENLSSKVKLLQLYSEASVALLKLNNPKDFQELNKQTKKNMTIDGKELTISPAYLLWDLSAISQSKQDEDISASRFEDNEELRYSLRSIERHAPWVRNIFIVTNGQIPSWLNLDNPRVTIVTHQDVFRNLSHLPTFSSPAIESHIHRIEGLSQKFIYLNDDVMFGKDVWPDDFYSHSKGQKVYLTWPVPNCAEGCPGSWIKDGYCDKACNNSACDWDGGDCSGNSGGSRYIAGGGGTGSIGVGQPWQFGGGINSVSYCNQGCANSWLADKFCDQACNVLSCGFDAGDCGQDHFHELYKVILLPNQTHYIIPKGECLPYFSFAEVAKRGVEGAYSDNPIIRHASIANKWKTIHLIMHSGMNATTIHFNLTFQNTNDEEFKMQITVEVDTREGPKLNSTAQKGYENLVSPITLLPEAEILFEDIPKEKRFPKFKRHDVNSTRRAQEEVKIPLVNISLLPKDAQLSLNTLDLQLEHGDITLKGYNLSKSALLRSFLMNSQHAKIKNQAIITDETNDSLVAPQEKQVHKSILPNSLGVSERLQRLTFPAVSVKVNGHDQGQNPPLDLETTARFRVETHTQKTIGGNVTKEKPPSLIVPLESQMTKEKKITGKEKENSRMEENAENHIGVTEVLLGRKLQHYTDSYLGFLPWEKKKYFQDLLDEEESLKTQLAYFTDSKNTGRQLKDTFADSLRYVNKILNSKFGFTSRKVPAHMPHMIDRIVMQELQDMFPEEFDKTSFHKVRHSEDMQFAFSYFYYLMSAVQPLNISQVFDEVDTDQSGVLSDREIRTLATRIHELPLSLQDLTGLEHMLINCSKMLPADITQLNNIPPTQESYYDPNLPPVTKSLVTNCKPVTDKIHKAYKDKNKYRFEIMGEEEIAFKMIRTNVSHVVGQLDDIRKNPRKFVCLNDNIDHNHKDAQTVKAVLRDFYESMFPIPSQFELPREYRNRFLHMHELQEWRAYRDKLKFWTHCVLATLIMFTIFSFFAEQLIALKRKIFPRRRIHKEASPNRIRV
Chain of LPAL2, G9a-methylated (human) (Q16609 22-132 limits assumed): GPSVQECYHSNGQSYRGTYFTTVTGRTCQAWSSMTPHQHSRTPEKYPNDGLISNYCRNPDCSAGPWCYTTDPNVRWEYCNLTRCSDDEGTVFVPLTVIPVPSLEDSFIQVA

3× Flag-3×MBT (designed binder)
G9a Average SNR [1]: 16.6 | G9a Average SNR [2]: 16.6 | G9a Average SNR [3]: 12.4 | G9a Average SNR [4]: 14.9 | G9a Average SNR [5]: 11.9 | G9a Average SNR [6]: 34.5 | G9a Average SNR [7]: 25.3 | G9a Average SNR [8]: 13.8 | G9a Average SNR [9]: 19.7 | G9a Average SNR [10]: 15.2 | G9a Average SNR [11]: 11.2 | G9a Average SNR [12]: 19 | G9a Average SNR [13]: 13.6 | G9a Average SNR [14]: 49.9 | G9a Average SNR [15]: 15 | G9a Average SNR [16]: 34.2 | G9a Average SNR [17]: 13.1 | G9a Average SNR [18]: 16.5 | G9a Average SNR [19]: 19.2 | G9a Average SNR [20]: 15.8 | G9a Average SNR [21]: 25.5 | G9a Average SNR [22]: 16.7 | G9a Average SNR [23]: 11.5 | G9a Average SNR [24]: 14.7 | G9a Average SNR [25]: 29.8 | G9a Average SNR [26]: 33.3 | G9a Average SNR [27]: 44 | G9a Average SNR [28]: 13.9 | G9a Average SNR [29]: 15.2 | G9a Average SNR [30]: 14.1 | G9a Average SNR [31]: 12.8 | G9a Average SNR [32]: 11.8 | G9a Average SNR [33]: 12.3 | G9a Average SNR [34]: 19.8 | G9a Average SNR [35]: 14.8 | G9a Average SNR [36]: 12.6 | G9a Average SNR [37]: 17.9 | G9a Average SNR [38]: 16.5 | G9a Average SNR [39]: 14.4 | G9a Average SNR [40]: 15.1 | G9a Average SNR [41]: 13.6 | G9a Average SNR [42]: 21.2 | G9a Average SNR [43]: 16.6 | G9a Average SNR [44]: 13.4 | G9a Average SNR [45]: 14.7
